Source: patent publication US20100150906A1 (AC IMMUNE S A, published 2010)
Several values for one entry are separate records, joined by “and”; a condition that tells them apart may be missing. Equal values may be shown once. No end group written: not given here.

What was measured:
[1] = biological target: T1, amyloid beta 1-42 monomers (UniProt P05067 672-713); assay: ELISA on coated amyloid (55 µg/ml); mC2 at 0.078 ug/ml
T1 construct: domain: amyloid beta 1-42; also called Aβ1-42 monomers; amyloid monomers
Experimental: (§1) In order to evaluate the specificity of mC2 to different stages of polymerized amyloid protein, monomeric, polymeric soluble and fibrillic amyloid, an ELISA coated with these different stages of polymeric beta-amyloid was performed (FIG. 9). Monomers were prepared according to a modified method published by (Klein, 2002), soluble polymeric amyloid beta according to (Barghorn et al., 2005), whereas fibers were performed by incubation of amyloid (Bachem, Switzerland) with a final concentration of 1 μg/μl in Tris/HCl pH 7.4 at 37° C. for 5 days followed by a centrifugation step (10,000 rpm for 5 minutes). Then amyloid polymers were coated on an ELISA plates with a final concentration of 55 μg/ml and binding affinity ELISA by using an anti-mouse IgG monoclonal antibody (Jackson) labelled with alkaline phosphate was performed.

amyloid beta 1-42 fibers [2] = biological target: T2, amyloid beta 1-42 fibers (UniProt P05067 672-713); assay: as above
T2 construct: domain: amyloid beta 1-42; Many copies per fiber; also called Aβ1-42 fibers; fibrillar Aβ1-42
Experimental: as §1

[3] = biological target: T3, soluble polymeric amyloid beta (oligomers) (UniProt P05067 672-713); assay: as above
T3 construct: domain: amyloid beta 1-42; also called amyloid oligomers; Abeta oligomer
Experimental: as §1

[4] = biological target: T1, amyloid beta 1-42 monomers; assay: ELISA on coated amyloid (55 µg/ml); mC2 at 0.156 ug/ml
Experimental: as §1

amyloid beta 1-42 fibers [5] = biological target: T2, amyloid beta 1-42 fibers; assay: as above
Experimental: as §1

[6] = biological target: T3, soluble polymeric amyloid beta …; assay: as above
Experimental: as §1

[7] = biological target: T1, amyloid beta 1-42 monomers; assay: ELISA on coated amyloid (55 µg/ml); mC2 at 0.312 ug/ml
Experimental: as §1

amyloid beta 1-42 fibers [8] = biological target: T2, amyloid beta 1-42 fibers; assay: as above
Experimental: as §1

[9] = biological target: T3, soluble polymeric amyloid beta …; assay: as above
Experimental: as §1

amyloid beta 1-42 fibers [10] = biological target: T2, amyloid beta 1-42 fibers; assay: SPR (Biacore X), fibrillar Aβ1-42 on CM5 chip, 1:1 fit
Experimental: The interactions between AC immune's lead antibody mACI-01-Ab7 C2 (mC2) with amyloid peptide Aβ₁₋₄₂ was studies using surface plasmon resonance. The binding of the mouse antibody mACI-01-Ab7 C2 to either monomers or fibers of Aβ₁₋₄₂ were determined.
All SPR experiments were carried out on a Biacore X instrument (Biacore AB). Reagents for immobilization (EDC, NHS and ethanolamine), sensor chips CM5 and SA as well as running and sample buffer HBS-EP were purchased from Biacore AB. Sodium acetate (10 mM, pH 5.0) was used as coupling buffer to increase coupling yield. Fibrillar Aβ₁₋₄₂ (BAchem) was prepared by adding PBS buffer to Aβ₁₋₄₂ to a final concentration of 3 mg/ml and leaving the vials at 37° C. for 7 days. Fibrillar Aβ₁₋₄₂ was coupled to a CM5 sensor chip containing a surface-bound carboxymethyl dextran matrix. Biotinylated monomeric Aβ₁₋₄₂ (Bachem) was coupled to a Sensor chip SA consisting of carboxymethyl dextran matrix with covalently attached Streptavidin. Typically four or five concentrations of mAb were assayed by serial dilutions using running buffer. Injections were performed starting from the lowest concentration and were passed over both fc 1 and 2 at a flow rate of 30 μL'min for 3 min. Flow cell 2 was underivatised and responses were subtracted from fc 1 to correct for instrument noise and bulk refractive changes. After injection was finished, the surfaces were washed immediately with running buffer for 5 min. To remove remaining bound antibody from the Aβ₁₋₄₂ fibrils, surface regeneration was performed by injecting pulses of 10 mM NaOH. Kinetic analysis was performed using algorithms for numerical integration and global analysis using BIAevaluation 3.0. The curves obtained for injections of analyte at different concentrations were overlaid and the baselines adjusted to zero. For curve fitting, all data were fit simultaneously to a 1:1 homogeneous complex.

[11] = biological target: T4, peptide A15 of the second library (aa 12-20, Q15 to alanine) (also: biotinylated, position not given here); assay: ELISA on alanine-substituted biotinylated peptides, antibody at 10 µg/ml
T4 peptide: VHHAKLVFF
Experimental: (§2) Epitope mapping of the monoclonal antibody mACI-01-Ab7 C2 was performed by ELISA using three different peptide libraries. One library comprises a total of 33 biotinylated peptides covering the complete amino acid (aa) sequence of Aβ1-42 (produced by Mimotopes and purchased from ANAWA Trading SA), the second library contains biotinylated peptides using peptide 12 (aa12-20 of Aβ) from the first peptide library and substituting each amino acid in the sequence by an alanine (see table 41 below), and the third library contains biotinylated peptides 13, 14, or 15 (aa 13-21, 14-22 or 15-23 of Aβ) and substituting in each case the last amino acids to an alanine or to a glycine for aa 21 which is already an alanine (see table 5 below). A biotinylated complete Aβ1-42 peptide was used as positive control (Bachem). Epitope mapping was done according to the manufacturer's (Mimotopes) instructions. Briefly, Streptavidin coated plates (NUNC) were blocked with 0.1% BSA in PBS overnight at 4° C. After washing with PBS-0.05% Tween 20, plates were coated for 1 hour at RT with the different peptides from the library, diluted in 0.1% BSA, 0.1% Sodium Azide in PBS to a final concentration of 10 μM. After washing, plates were incubated for 1 hour at RT with the mACI-01-Ab7 C2 antibody or an isotype control mouse IgG2b antibody, diluted to 10 μg/ml in 2% BSA, 0.1% Sodium Azide in PBS. […]

[12] = biological target: peptide A18 of the second library (aa 12-20, V18 to alanine) (biotinylated (position not given)); assay: as above
Experimental: as §2

T1 sequence (P05067 672-713 limits assumed): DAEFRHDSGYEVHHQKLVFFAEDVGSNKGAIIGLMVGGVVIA
T2 sequence (P05067 672-713 limits assumed): as above
T3 sequence (P05067 672-713 limits assumed): as above

O.D [1]: 0.333 O.D
O.D (amyloid beta 1-42 fibers [2]): 0.499 O.D
O.D [3]: 0.652 O.D
O.D [4]: 0.397 O.D
O.D (amyloid beta 1-42 fibers [5]): 0.631 O.D
O.D [6]: 1.04 O.D
O.D [7]: 0.649 O.D
O.D (amyloid beta 1-42 fibers [8]): 0.989 O.D
O.D [9]: 1.72 O.D
Kd (amyloid beta 1-42 fibers [10]): 45.8 nM and 41 nM and 17.3 nM
koff (amyloid beta 1-42 fibers [10]): 0.00149 s⁻¹ and 0.00099 s⁻¹ and 0.000966 s⁻¹
kon (amyloid beta 1-42 fibers [10]): 24000 M⁻¹ s⁻¹ and 56000 M⁻¹ s⁻¹ and 32600 M⁻¹ s⁻¹
binding result [11]: binds
binding result [12]: binds
B1: mouse monoclonal antibody ACI-01-Ab7C2 (antibody, V domains shown)
VH: EVQLVESGGGLVQPGGSLKLSCAASGFTFSSYGMSWVRQTPDKRLELVASINSNGGSTYYPDSVKGRFTISRDNAKNTLYLQMSSLKSEDTAMYYCASGDYWGQGSTLTVSS
VL: DVVMTQTPLSLPVSLGDQASISCRSSQSLVYSNGDTYLHWYLQKPGQSPKLLIYKVSNRFSGVPDRFSGSGSGTDFTLKISRVEAEDLGVYFCSQSTHVPWTFGGGTKLEIK
notes: also called mC2; mACI-01-Ab7 C2
